B1: CCND1 (parent)
chain: PEAEENKQIIRKHAQTFVALCATD
B2: WDFY2 (parent)
chain: FWNFKQMWDSKKIGLRQHHCRKCG

Variants of: B1
Assay: protein stability index of a GFP-peptide fusion (GPS, HEK-293T) (PSI 1-6); higher = more stable
Details: c terminus: a fixed tail appended
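Further: lentivirally expressed fusions sorted by FACS into six bins by GFP to DsRed ratio, PSI derived from sequencing read proportions per bin multiplied by bin number.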

Protein stability index: each site, then its substitutions
T23: A 2.87; K 2.92; N 2.94; V 2.87; I 2.38; R 2.48; Y 2.47; Q 2.54; S 2.48; C 2.64; L 2.35; W 2.63; M 2.94; H 2.64; G 2.64; E 2.21; D 3.22; F 1.75; P 3.07
T16: R 4.25; G 3.88; E 5.27; L 3.51; A 4.71; Q 4.13; S 3.2; P 4.62; N 4.61; F 3.37; H 4.35; C 3.55; V 3.85; Y 3.58; D 4.81; M 3.86; W 2.85; K 4.7; I 3.35
A19: L 2.59; T 4.06; H 3.32; M 2.55; R 3.96; K 3.54; C 3.3; S 2.89; N 2.92; F 3.08; I 2.85; V 4.04; P 4.92; W 3.06; D 2.6; G 2.91; E 2.49; Y 3.64; Q 2.5
R11: V 3.14; D 4.11; Y 2.88; N 3.59; F 2.64; T 3.47; K 2.9; P 3.28; C 2.94; W 2.6; E 3.76; H 3.33; A 3.58; M 2.71; Q 3.61; I 2.84; S 2.62; G 3.16; L 3.25
K12: H 3.47; R 2.67; M 2.73; T 3.06; V 3.13; S 2.29; F 2.51; L 2.77; A 3.83; Y 3.49; E 4.58; P 4.03; Q 3.9; C 2.76; G 3.65; W 2.34; D 3.66; N 3.25; I 2.39
L20: W 4.15; T 4.04; F 4.21; M 2.11; Y 2.66; I 3.33; N 3.84; H 3.21; S 4.43; D 4.62; G 4.71; A 3.3; C 3.82; P 4.79; K 2.59; Q 2.85; E 4.8; R 2.09; V 2.87
A14: I 2.29; F 2.79; Y 2.44; W 1.94; C 2.72; P 2.64; R 1.85; D 3.71; G 3.71; T 2.33; H 2.62; V 2.3; K 2.38; E 3.45; L 2.18; Q 2.28; S 2.96; N 3.77; M 2.97
H13: S 2.54; E 3.7; D 4.02; A 3.11; V 3.02; R 2.9; Y 2.59; F 2.55; W 2.25; M 2.89; K 2.02; C 2.65; T 3.07; G 3.84; I 1.87; L 2.81; P 3.17; N 2.53; Q 3.4
A22: I 2.95; W 2.09; C 2.15; F 2.63; G 3.37; M 2.67; R 3.16; P 4.49; Q 2.91; Y 3.02; V 2.52; N 4.43; S 3.19; K 3.66; D 3.87; L 2.72; T 2.87; H 3.38; E 2.96
C21: E 4.9; P 4.7; T 2.78; H 4.37; M 3.28; G 5.04; L 1.66; W 3.59; F 3.75; R 4.86; I 1.98; Q 4.95; A 4.05; V 2.24; D 5.22; Y 2.96; K 5.07; S 4.07; N 5.27
I9: Q 2.81; K 2.45; G 3.27; Y 2.71; M 3.53; N 3.56; V 3.04; T 2.18; R 2.17; S 2.46; F 2.86; P 3; C 2.48; L 3.36; E 3.89; W 2.73; D 3.9; H 3.58
F17: I 4.84; Q 4.99; N 5.41; K 5.34; T 5.23; S 4.67; R 4.54; W 2.11; M 5.03; E 5.24; A 4.99; V 4.33; P 5.15; Y 3.27; L 4.47; H 4.86; G 5.43; C 4.84; D 5.61
V18: P 5.04; M 4.35; H 4.7; T 3.96; L 4.49; F 4.28; S 4.49; I 4.42; R 3.87; D 5.34; W 3.76; G 4.55; Y 3.75; E 5.09; C 3.72; A 3.77; Q 4.29; N 4.61; K 5.09
Q15: S 3.52; G 3.11; P 3.48; C 2.84; F 2.07; H 2.97; L 2.49; I 2.33; R 2.32; K 2.04; W 2.16; E 3.63; N 3.41; M 2.59; A 3.45; T 3.18; D 3.66; Y 2.01; V 2.84
D24: L 2.79; Q 3.8; P 3.63; I 2.15; G 2.85; K 3.84; Y 2.89; R 2.7; T 3.35; W 2.39; S 3.9; M 2.93; V 2.54; N 3.88; H 2.77; E 2.33; C 2.71; F 2.23; A 3.27
I10: Y 2.29; S 2.53; M 3.5; K 2.92; R 3.19; N 3.04; G 2.53; D 3.14; F 2.48; P 3.14; A 2.79; E 3.64; Q 2.81; W 3.22; L 3.48; C 3.13; T 3.04; V 3.39; H 3.5

Variants of: B2
Assay: as above
Details: c terminus: a fixed tail appended

Protein stability index: each site, then its substitutions
W2: A 1.86; H 2.32; M 2.39; C 2.19; D 2.78; L 1.93; N 2.63; E 3.29; K 2.04; F 1.61; G 1.8; I 2.23
F1: K 2.11; C 2.65; R 2.01; N 2.32; S 2; H 2.66; P 2.99; Y 1.52; I 2.08; E 3.02; Q 2.11; T 2.14; M 1.52; G 2.32; D 2.59; V 2.86; W 2.25; A 2.86; L 1.44
